Reference: publication PMC12098869, “An mRNA-display derived cyclic peptide scaffold reveals the substrate binding interactions of an N-terminal cysteine oxidase” (Nature Communications, 2025)

B1: 2-aminoethanethiol dioxygenase (ADO), full-length human, N-terminally His-tagged and biotinylated (pQE80L-Navi-ADO) [modified: biotin (biotinylated during expression, 0.2 mM biotin added); biotin (biotinylated during … (parent)
chain 1: CKGLAALPHSCLER
chain 2: MPRDNMASLIQRIARQACLTFRGSGGGRGASDRDAASGPEAPMQPGFPENLSKLKSLLTQLRAEDLNIAPRKATLQPLPPNLPPVTYMHIYETDGFSLGVFLLKSGTSIPLHDHPGMHGMLKVLYGTVRISCMDKLDAGGGQRPRALPPEQQFEPPLQPREREAVRPGVLRSRAEYTEASGPCILTPHRDNLHQIDAVEGPAAFLDILAPPYDPDDGRDCHYYRVLEPVRPKEASSSACDLPREVWLLETPQADDFWCEGEPYPGPKVFP
B2: 2-aminoethanethiol dioxygenase (ADO), full-length human, N-terminally His-tagged and biotinylated (pQE80L-Navi-ADO) [modified: biotin (biotinylated during expression, 0.2 mM biotin added); biotin (biotinylated during … (parent)
chain 1: CFPKVLSDDMKKLK
chain 2: B1 chain 2

Variants of: B1
Experiment: SPR
Conditions: with RGS5_(2-15), parent: 1, read off a plot
With chain 2 MPRDNMASLIQRIARQACLTFRGSGGGRGASDRDAASGPEAPMQPGFPENLSKLKSLLTQLRAEDLNIAPRKATLQPLPPNLPPVTYMHIYETDGFSLGVFLLKSGTSIPLHDHPGMHGMLKVLYGTVRISCMDKLDAGGGQRPRALPPEQQFEPPLQPREREAVRPGVLRSRAEYTEASGPCILTPHRDNLHQIDAVEGPAAFLDILAPPFDPDDGRDCHYYRVLEPVRPKEASSSACDLPREVWLLETPQADDFWCEGEPYPGPKVFP [chain 2 Y212F] the ratio to parent (fold difference) was 39. chain 2 MPRDNMASLIQRIARQACLTFRGSGGGRGASDRDAASGPEAPMQPGFPENLSKLKSLLTQLRAEDLNIAPRKATLQPLPPNLPPVTYMHIYETDGFSLGVFLLKSGTSIPLHDHPGMHGMLKVLYGTVRISCMDKLDAGGGQRPRALPPEQQFEPPLQPREREAVRPGVLRSRAEYTEASGPCILTPHRDNLHQIDAVEGPAAFLDILAPPADPDDGRDCHYYRVLEPVRPKEASSSACDLPREVWLLETPQADDFWCEGEPYPGPKVFP [chain 2 Y212A] showed a ratio to parent (fold difference) of 110. With chain 2 MPRDNMASLIQRIARQACLTFRGSGGGRGASDRDAASGPEAPMQPGFPENLSKLKSLLTQLRAEDLNIAPRKATLQPLPPNLPPVTYMHIYETDGFSLGVFLLKSGTSIPLHDHPGMHGMLKVLYGTVRISCMDKLDAGGGQRPRALPPEQQFEPPLQPREREAVRPGVLRSRAEYTEASGPCILTPHRDNLHQIDAVEGPAAFLNILAPPYDPDDGRDCHYYRVLEPVRPKEASSSACDLPREVWLLETPQADDFWCEGEPYPGPKVFP [chain 2 D206N] the ratio to parent (fold difference) was -4.

Variants of: B2
Experiment: SPR
Conditions: with IL32_(2-15), parent: 1, read off a plot
chain 2 MPRDNMASLIQRIARQACLTFRGSGGGRGASDRDAASGPEAPMQPGFPENLSKLKSLLTQLRAEDLNIAPRKATLQPLPPNLPPVTYMHIYETDGFSLGVFLLKSGTSIPLHDHPGMHGMLKVLYGTVRISCMDKLDAGGGQRPRALPPEQQFEPPLQPREREAVRPGVLRSRAEYTEASGPCILTPHRDNLHQIDAVEGPAAFLDILAPPFDPDDGRDCHYYRVLEPVRPKEASSSACDLPREVWLLETPQADDFWCEGEPYPGPKVFP [chain 2 Y212F] gave a ratio to parent (fold difference) of 19. Variant chain 2 MPRDNMASLIQRIARQACLTFRGSGGGRGASDRDAASGPEAPMQPGFPENLSKLKSLLTQLRAEDLNIAPRKATLQPLPPNLPPVTYMHIYETDGFSLGVFLLKSGTSIPLHDHPGMHGMLKVLYGTVRISCMDKLDAGGGQRPRALPPEQQFEPPLQPREREAVRPGVLRSRAEYTEASGPCILTPHRDNLHQIDAVEGPAAFLDILAPPADPDDGRDCHYYRVLEPVRPKEASSSACDLPREVWLLETPQADDFWCEGEPYPGPKVFP [chain 2 Y212A] has a ratio to parent (fold difference) of 60. With chain 2 MPRDNMASLIQRIARQACLTFRGSGGGRGASDRDAASGPEAPMQPGFPENLSKLKSLLTQLRAEDLNIAPRKATLQPLPPNLPPVTYMHIYETDGFSLGVFLLKSGTSIPLHDHPGMHGMLKVLYGTVRISCMDKLDAGGGQRPRALPPEQQFEPPLQPREREAVRPGVLRSRAEYTEASGPCILTPHRDNLHQIDAVEGPAAFLNILAPPYDPDDGRDCHYYRVLEPVRPKEASSSACDLPREVWLLETPQADDFWCEGEPYPGPKVFP [chain 2 D206N] the ratio to parent (fold difference) was -7.
